Assay results from patent US20040253623, “Nucleic acid binding proteins” (Gendaq Limited, published 2004).

Tests used:
[1] = target: anti-ras lead zinc finger peptide (3 fingers) (Artificial Sequence); test: apparent Kd; phage binding; settings: protein: virion; label: biotin
[2] = target: optimised anti-ras zinc finger peptide (Asn at helix +3 of finger 1) (Artificial Sequence, S21N (finger 1 helix position +3 Ser to Asn; numbering of SEQ 14)); test: apparent Kd; phage binding; settings: protein: virion; label: biotin
Chain of optimised anti-ras zinc finger peptide (Asn at helix +3 of finger 1) (Artificial Sequence, S21N (finger 1 helix position +3 Ser to Asn; numbering of SEQ 14)) (chain, as listed by the source with the stated changes): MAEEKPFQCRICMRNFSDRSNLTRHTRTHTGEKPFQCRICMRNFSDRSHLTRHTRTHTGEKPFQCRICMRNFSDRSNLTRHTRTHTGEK

Chain of anti-ras lead zinc finger peptide (3 fingers) (Artificial Sequence) (chain, as listed by the source): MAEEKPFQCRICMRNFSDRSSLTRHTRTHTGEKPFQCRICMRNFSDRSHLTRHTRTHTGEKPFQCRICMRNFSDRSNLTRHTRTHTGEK

B1: EJ mutant (G12V) H-ras DNA, codons 8-16 (dsDNA)
DNA 1: GTGGTGGGCGCCGTCGGTGTGGGCAAG
DNA 2: CTTGCCCACACCGACGGCGCCCACCAC
Kd [1]: 17 nM
Kd [2]: 3 nM
